This is an account of results in US20100323375.

The target in one data set is FLAG-APP (UniProt P05067).
A further data set relates to T1, FLAG-Alcalpha.
T1 sequence 1: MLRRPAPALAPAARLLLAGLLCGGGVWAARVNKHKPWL
T1 sequence 2: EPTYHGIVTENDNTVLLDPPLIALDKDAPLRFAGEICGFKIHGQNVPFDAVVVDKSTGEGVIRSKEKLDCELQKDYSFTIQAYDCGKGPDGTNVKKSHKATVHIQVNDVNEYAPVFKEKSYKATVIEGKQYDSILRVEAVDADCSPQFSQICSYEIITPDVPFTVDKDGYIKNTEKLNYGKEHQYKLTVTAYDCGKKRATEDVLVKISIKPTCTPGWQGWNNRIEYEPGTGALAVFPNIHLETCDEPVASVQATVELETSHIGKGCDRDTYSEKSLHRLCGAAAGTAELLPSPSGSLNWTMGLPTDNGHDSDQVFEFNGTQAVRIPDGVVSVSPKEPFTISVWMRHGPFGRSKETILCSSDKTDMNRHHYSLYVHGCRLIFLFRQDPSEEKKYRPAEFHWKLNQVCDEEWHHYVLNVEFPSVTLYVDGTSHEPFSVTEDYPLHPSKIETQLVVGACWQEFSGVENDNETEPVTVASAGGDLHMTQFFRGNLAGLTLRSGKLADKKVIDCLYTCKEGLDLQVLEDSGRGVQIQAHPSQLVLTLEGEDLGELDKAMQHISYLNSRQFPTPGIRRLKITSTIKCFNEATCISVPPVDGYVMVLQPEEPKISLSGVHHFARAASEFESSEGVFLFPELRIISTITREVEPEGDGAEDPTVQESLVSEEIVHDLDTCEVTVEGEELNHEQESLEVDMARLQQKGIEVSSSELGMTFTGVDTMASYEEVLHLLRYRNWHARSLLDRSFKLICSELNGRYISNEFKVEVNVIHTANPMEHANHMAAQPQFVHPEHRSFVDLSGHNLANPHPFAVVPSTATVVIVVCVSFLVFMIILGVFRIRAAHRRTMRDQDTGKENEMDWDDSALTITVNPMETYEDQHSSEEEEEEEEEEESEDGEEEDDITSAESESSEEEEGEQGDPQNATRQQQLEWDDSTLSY

The subject of a further data set is T2, FLAG-Alcbeta.
T2 sequence 1: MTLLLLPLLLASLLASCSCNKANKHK
T2 sequence 2: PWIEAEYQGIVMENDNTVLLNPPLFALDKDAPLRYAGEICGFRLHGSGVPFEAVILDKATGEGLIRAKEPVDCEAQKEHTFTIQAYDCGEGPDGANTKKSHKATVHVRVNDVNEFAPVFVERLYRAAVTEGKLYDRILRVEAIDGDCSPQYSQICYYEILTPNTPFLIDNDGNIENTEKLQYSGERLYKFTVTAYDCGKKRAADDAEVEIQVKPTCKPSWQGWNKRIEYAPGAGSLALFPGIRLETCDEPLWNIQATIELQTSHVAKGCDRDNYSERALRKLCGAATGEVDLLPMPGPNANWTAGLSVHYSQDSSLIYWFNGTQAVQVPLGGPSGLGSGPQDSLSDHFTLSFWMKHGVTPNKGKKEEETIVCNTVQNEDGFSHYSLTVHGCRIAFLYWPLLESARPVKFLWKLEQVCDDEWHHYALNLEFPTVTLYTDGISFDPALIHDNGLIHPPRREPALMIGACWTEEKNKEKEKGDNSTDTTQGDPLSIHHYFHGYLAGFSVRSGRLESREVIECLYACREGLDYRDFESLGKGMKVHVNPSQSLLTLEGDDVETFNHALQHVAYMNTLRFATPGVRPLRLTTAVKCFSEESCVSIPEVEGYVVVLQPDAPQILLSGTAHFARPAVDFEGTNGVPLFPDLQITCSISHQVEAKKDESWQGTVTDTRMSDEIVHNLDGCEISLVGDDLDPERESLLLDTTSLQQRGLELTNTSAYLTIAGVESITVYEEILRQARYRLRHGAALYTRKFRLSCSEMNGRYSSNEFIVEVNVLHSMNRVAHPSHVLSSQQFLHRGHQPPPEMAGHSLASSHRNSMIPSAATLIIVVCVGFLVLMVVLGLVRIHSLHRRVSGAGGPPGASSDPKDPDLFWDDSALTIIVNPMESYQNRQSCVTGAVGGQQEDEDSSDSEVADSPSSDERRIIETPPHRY

Another data set relates to T3, FLAG-Alcgamma.
T3 sequence 1: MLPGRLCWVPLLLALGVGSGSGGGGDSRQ
T3 sequence 2: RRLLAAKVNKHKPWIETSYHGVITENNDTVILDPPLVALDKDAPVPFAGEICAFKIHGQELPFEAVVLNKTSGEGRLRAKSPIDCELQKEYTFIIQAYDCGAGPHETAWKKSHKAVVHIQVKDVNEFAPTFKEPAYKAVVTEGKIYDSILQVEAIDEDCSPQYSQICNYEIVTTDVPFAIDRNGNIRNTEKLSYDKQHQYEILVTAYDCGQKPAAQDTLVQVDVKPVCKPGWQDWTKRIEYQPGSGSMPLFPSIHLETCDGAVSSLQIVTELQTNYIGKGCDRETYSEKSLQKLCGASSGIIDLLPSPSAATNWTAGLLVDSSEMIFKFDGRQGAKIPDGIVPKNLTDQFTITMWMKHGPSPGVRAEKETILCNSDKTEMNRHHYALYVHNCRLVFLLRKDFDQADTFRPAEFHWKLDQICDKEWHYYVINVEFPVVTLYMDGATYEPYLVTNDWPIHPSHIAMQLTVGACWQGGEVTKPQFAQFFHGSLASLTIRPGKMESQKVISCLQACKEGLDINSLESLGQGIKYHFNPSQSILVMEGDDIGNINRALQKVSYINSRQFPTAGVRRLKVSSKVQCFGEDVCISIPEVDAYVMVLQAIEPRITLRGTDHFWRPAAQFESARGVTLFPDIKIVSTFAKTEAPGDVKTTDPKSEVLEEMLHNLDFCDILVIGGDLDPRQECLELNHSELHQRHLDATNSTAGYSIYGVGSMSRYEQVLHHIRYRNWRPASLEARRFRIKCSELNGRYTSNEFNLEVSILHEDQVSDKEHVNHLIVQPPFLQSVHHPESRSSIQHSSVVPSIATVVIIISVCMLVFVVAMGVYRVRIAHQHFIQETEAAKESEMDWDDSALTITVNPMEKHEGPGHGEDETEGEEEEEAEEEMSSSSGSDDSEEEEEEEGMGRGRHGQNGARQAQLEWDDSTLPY

Chain of ADAM10-HA (O14672 whole entry): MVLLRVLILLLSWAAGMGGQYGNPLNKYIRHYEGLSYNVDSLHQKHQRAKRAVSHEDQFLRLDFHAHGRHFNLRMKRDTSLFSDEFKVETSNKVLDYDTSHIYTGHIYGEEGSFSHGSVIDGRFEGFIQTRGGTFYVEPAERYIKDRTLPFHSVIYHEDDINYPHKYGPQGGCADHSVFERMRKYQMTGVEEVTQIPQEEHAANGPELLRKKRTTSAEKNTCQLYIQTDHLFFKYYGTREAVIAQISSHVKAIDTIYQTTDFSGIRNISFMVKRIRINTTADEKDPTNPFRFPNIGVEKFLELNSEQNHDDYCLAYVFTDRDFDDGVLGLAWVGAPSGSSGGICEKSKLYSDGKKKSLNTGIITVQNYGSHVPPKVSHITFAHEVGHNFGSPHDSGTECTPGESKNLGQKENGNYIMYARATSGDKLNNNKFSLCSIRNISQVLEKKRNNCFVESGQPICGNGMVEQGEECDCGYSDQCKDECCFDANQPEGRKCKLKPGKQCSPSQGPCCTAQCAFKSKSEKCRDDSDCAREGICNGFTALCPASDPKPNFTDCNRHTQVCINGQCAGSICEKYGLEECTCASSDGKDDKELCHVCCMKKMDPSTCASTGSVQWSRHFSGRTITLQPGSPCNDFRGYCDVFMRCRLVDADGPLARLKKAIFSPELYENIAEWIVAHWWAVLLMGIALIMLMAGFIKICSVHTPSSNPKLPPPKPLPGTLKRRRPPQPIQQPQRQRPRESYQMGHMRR
Chain of FLAG-APP (P05067 whole entry, looked up): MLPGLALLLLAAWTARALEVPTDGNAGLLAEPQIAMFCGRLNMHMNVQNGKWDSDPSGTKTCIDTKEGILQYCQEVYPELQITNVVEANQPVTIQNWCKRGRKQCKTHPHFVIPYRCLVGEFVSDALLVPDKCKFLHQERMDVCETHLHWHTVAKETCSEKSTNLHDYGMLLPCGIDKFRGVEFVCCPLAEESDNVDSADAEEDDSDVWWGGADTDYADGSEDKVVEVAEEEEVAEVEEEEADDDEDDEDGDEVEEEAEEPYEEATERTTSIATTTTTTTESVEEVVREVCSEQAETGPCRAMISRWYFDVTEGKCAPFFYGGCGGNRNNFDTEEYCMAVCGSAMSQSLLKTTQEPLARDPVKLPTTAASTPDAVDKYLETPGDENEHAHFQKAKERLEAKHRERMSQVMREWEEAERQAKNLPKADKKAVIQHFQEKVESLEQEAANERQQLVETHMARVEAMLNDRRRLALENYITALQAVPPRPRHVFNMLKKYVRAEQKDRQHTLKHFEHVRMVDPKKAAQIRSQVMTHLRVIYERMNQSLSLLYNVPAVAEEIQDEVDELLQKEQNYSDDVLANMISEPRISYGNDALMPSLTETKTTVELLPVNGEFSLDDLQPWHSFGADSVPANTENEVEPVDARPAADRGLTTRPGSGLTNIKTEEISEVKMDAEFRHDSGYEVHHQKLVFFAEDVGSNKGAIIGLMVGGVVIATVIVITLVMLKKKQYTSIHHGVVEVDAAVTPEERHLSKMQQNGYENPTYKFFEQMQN

With ADAM10-HA, the “amount of sAPP secreted by ADAM (-/-) MEFs with exogenous ADAM10 against without” value with FLAG-APP is reported as “about 1.7 fold over that of sAPP secreted by ADAM (-/-) MEFs”. Further, the “amount of sAlcalpha secreted by ADAM (-/-) MEFs with exogenous ADAM10” value with FLAG-Alcalpha was “The amounts of sAlcalpha, sAlcbeta, and sAlcgamma secreted by ADAM (-/-) MEFs were restored in response to the expression of exogenous ADAM10”. Besides, the “amount of sAlcbeta secreted by ADAM (-/-) MEFs with exogenous ADAM10” value in the data set with FLAG-Alcbeta is “The amounts of sAlcalpha, sAlcbeta, and sAlcgamma secreted by ADAM (-/-) MEFs were restored in response to the expression of exogenous ADAM10”. The “amount of sAlcgamma secreted by ADAM (-/-) MEFs with exogenous ADAM10” value with FLAG-Alcgamma is “The amounts of sAlcalpha, sAlcbeta, and sAlcgamma secreted by ADAM (-/-) MEFs were restored in response to the expression of exogenous ADAM10”.
